Reference: patent US20170260242, “METHOD FOR MODIFYING RNA BINDING PROTIEN USING PPR MOTIF” (Kyushu University, National University Corporation, published 2017)
Substitutions are numbered along the chain they refer to.

How the values were obtained:
[1] = target: T1, 5&6/5-T5I (Arabidopsis thaliana, UniProt Q9SF38 SEQ:123-204); assay: EMSA; position 5 not among those with 10-fold or more reduction (position-level); settings: tags: N-terminal thioredoxin, C-terminal His; label: 32P-UTP internal
T1 chain: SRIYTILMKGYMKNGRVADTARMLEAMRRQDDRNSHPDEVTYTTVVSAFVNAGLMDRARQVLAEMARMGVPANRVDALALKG
Description: (§1) The RNA binding activity of the mini PPR protein was analyzed by gel shift method. […] Then, to the reaction solution was added 4 microliters of 80% glycerol solution, and 10 μL was developed in 10% nondenaturing polyacrylamide gel comprising 1×TBE (89 mM Tris-HCl, 89 mM Boric acid, and 2 mM EDTA) and the gel was dried after electrophoresis. The radioactivity of RNA in the gel was measured with Bioimaging Analyzer BAS2000 (From Fujifilm). […] This is because the molecular weight of the 32P-labeled RNA/protein conjugate is larger than the molecular weight of the 32P-labeled RNA alone and thus mobility in electrophoresis had become slower. The binding between protein and RNA was quantified based on the results in FIGS. 1C-H (FIG. 1B), and evaluated by determining the disassociation constant (Kd) (FIG. 2C).
(§2) Using HCF152/5&6 as the model, mini PPR proteins having one amino acid substitution introduced centering on the aforementioned positions (1st, 2nd, 4th, 5th, 8th, 9th, 11th, and 12th) were prepared. The amino acid substitutions were based on substitution to alanine. […] Affinity with RNA was analyzed by the same gel shift method as above (FIG. 3), and the affinity with the RNA was evaluated with Kd (FIG. 4B).

[2] = target: T2, 8&9/9-K8D (Arabidopsis thaliana, UniProt Q9SF38 SEQ:124-194); assay: EMSA; no significant difference vs 8&9; settings: tags: N-terminal thioredoxin, C-terminal His; label: 32P-UTP internal
T2 chain: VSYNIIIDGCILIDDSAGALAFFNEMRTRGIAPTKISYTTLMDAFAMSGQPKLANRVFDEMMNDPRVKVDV
Description: (§3) The RNA binding activity of the mini PPR protein was analyzed by gel shift method. […] Then, to the reaction solution was added 4 microliters of 80% glycerol solution, and 10 μL was developed in 10% nondenaturing polyacrylamide gel comprising 1×TBE (89 mM Tris-HCl, 89 mM Boric acid, and 2 mM EDTA) and the gel was dried after electrophoresis. The radioactivity of RNA in the gel was measured with Bioimaging Analyzer BAS2000 (From Fujifilm). […] The binding between protein and RNA was quantified based on the results in FIGS. 1C-H (FIG. 1B), and evaluated by determining the disassociation constant (Kd) (FIG. 2C).

[3] = target: T3, 8&9/8-D8K,9-K8D (Arabidopsis thaliana, UniProt Q9SF38 SEQ:124-194); assay: EMSA; no significant difference vs 8&9; settings: tags: N-terminal thioredoxin, C-terminal His; label: 32P-UTP internal
T3 chain: T2 chain with D8K
Description: as §3

[4] = target: T4, 5&6/5-N13A (Arabidopsis thaliana, UniProt Q9SF38 SEQ:123-204); assay: EMSA; position 13 not among those with 10-fold or more reduction (position-level); settings: tags: N-terminal thioredoxin, C-terminal His; label: 32P-UTP internal
T4 chain: T1 chain with I6T, N14A
Description: as §1, §2

[5] = target: T5, 5&6/5-N13L (Arabidopsis thaliana, UniProt Q9SF38 SEQ:123-204); assay: as above; settings: tags: N-terminal thioredoxin, C-terminal His; label: 32P-UTP internal
T5 chain: T1 chain with I6T
Description: as §1, §2

[6] = target: T6, 5&6/5-K12N,6-N12K (Arabidopsis thaliana, UniProt Q9SF38 SEQ:124-197); assay: EMSA; affinity improved vs 5-K12N; value in figure; settings: tags: N-terminal thioredoxin, C-terminal His; label: 32P-UTP internal
T6 chain: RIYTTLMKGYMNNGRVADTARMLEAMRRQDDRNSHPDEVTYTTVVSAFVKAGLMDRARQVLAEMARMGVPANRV
Description: as §3

[7] = target: T7, HCF152/8&9 (Arabidopsis thaliana, UniProt Q9SF38 SEQ:124-195); assay: EMSA; 6 mM MgCl2, 30 mM KCl, pH 7.9, 25 C; settings: tags: N-terminal thioredoxin, C-terminal His; label: 32P-UTP internal
T7 chain: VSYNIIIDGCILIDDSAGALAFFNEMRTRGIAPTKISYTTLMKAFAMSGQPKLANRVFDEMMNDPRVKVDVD
Description: as §3

[8] = target: T8, HCF152/10&11 (Arabidopsis thaliana, UniProt Q9SF38 SEQ:124-195); assay: EMSA; 6 mM MgCl2, 30 mM KCl, pH 7.9, 25 C; settings: tags: N-terminal thioredoxin, C-terminal His; label: 32P-UTP internal
T8 sequence: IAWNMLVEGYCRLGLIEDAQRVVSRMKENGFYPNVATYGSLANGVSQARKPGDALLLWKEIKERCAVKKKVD
Description: as §3

[9] = target: T9, 5&6/5-M11A (Arabidopsis thaliana, UniProt Q9SF38 SEQ:123-204); assay: EMSA; position 11 not among those with 10-fold or more reduction (position-level); settings: tags: N-terminal thioredoxin, C-terminal His; label: 32P-UTP internal
T9 chain: T1 chain with I6T, M12A
Description: as §1, §2

[10] = target: T10, 5&6/5-M11I (Arabidopsis thaliana, UniProt Q9SF38 SEQ:123-204); assay: as above; settings: tags: N-terminal thioredoxin, C-terminal His; label: 32P-UTP internal
T10 chain: T1 chain with I6T, M12I
Description: as §1, §2

[11] = target: T11, 6&7/6-S8K (Arabidopsis thaliana, UniProt Q9SF38 SEQ:124-195); assay: EMSA; affinity improved vs 6&7; value in figure; settings: tags: N-terminal thioredoxin, C-terminal His; label: 32P-UTP internal
T11 chain: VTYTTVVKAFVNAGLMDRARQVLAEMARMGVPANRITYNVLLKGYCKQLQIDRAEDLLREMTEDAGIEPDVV
Description: as §3

[12] = target: T12, 6&7/7-N4T (Arabidopsis thaliana, UniProt Q9SF38 SEQ:124-195); assay: EMSA; affinity improved vs 6&7; value in figure; settings: tags: N-terminal thioredoxin, C-terminal His; label: 32P-UTP internal
T12 chain: T11 chain with K8S, N39T
Description: as §3

[13] = target: T13, 6&7/6-V1R (Arabidopsis thaliana, UniProt Q9SF38 SEQ:124-195); assay: EMSA; affinity improved vs 6&7; value in figure; settings: tags: N-terminal thioredoxin, C-terminal His; label: 32P-UTP internal
T13 chain: T11 chain with V1R, K8S
Description: as §3

[14] = target: T14, 8&9/8-D8K (Arabidopsis thaliana, UniProt Q9SF38 SEQ:124-194); assay: EMSA; no change vs 8&9; settings: tags: N-terminal thioredoxin, C-terminal His; label: 32P-UTP internal
T14 chain: T2 chain with D8K, D43K
Description: as §1

[15] = target: T15, 5&6/5-K12M,6-N12R (Arabidopsis thaliana, UniProt Q9SF38 SEQ:124-197); assay: EMSA; partly restored vs 6-N12R; settings: tags: N-terminal thioredoxin, C-terminal His; label: 32P-UTP internal
T15 chain: T6 chain with N12M, K50R
Description: as §3

[16] = target: T16, HCF152/5&6 (Arabidopsis thaliana, UniProt Q9SF38 SEQ:124-197); assay: EMSA; 6 mM MgCl2, 30 mM KCl, pH 7.9, 25 C; settings: tags: N-terminal thioredoxin, C-terminal His; label: 32P-UTP internal
T16 chain: T6 chain with N12K, K50N
Description: as §1

[17] = target: T17, 5&6/5-K12H (Arabidopsis thaliana, UniProt Q9SF38 SEQ:124-197); assay: EMSA; Kd almost equivalent to wild type 5&6; value in figure; settings: tags: N-terminal thioredoxin, C-terminal His; label: 32P-UTP internal
T17 chain: T6 chain with N12H, K50N
Description: as §1

[18] = target: T18, 5&6/5-G14A (Arabidopsis thaliana, UniProt Q9SF38 SEQ:124-197); assay: EMSA; position 14 not among those with 10-fold or more reduction (position-level); settings: tags: N-terminal thioredoxin, C-terminal His; label: 32P-UTP internal
T18 chain: T6 chain with N12K, G14A, K50N
Description: as §1, §2

[19] = target: T19, 5&6/5-G14D (Arabidopsis thaliana, UniProt Q9SF38 SEQ:124-197); assay: as above; settings: tags: N-terminal thioredoxin, C-terminal His; label: 32P-UTP internal
T19 chain: T6 chain with N12K, G14D, K50N
Description: as §1, §2

[20] = target: T16, HCF152/5&6; assay: EMSA; A>G>U; 200 nM protein; settings: tags: N-terminal thioredoxin, C-terminal His; label: 5'-32P
Description: (§4) The binding specificity of the mini PPR proteins were analyzed by gel shift method. […] Then, to the reaction solution was added 4 μl of 80% glycerol solution, and 10 μL was developed in 10% nondenaturing polyacrylamide gel comprising 1×TBE (89 mM Tris-HCl, 89 mM Boric acid, and 2 mM EDTA) and the gel was dried after electrophoresis. The radioactivity of RNA in the gel was measured with Bioimaging Analyzer BAS2000 (From Fujifilm).

[21] = target: T20, HCF152/9&10 (Arabidopsis thaliana, UniProt Q9SF38 SEQ:124-194); assay: EMSA; A>G>U; 200 nM protein; settings: tags: N-terminal thioredoxin, C-terminal His; label: 5'-32P
T20 sequence: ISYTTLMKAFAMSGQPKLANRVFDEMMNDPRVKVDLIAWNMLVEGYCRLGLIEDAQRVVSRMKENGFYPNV
Description: as §4

[22] = target: T21, HCF152/2&3 (Arabidopsis thaliana, UniProt Q9SF38 SEQ:124-194); assay: EMSA; A>G>U; 200 nM protein; settings: tags: N-terminal thioredoxin, C-terminal His; label: 5'-32P
T21 sequence: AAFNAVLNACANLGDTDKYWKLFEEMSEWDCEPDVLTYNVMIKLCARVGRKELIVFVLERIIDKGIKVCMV
Description: as §4

[23] = target: T22, HCF152/7&8 (Arabidopsis thaliana, UniProt Q9SF38 SEQ:124-196); assay: EMSA; A>U>G; 200 nM protein; settings: tags: N-terminal thioredoxin, C-terminal His; label: 5'-32P
T22 chain: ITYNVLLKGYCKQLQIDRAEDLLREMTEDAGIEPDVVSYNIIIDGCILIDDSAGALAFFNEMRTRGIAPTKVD
Description: as §4

[24] = target: T23, CAR4/6 (CRR4 PPR motif 6) (Arabidopsis thaliana); assay: EMSA; preference for A; settings: tags: N-terminal thioredoxin, C-terminal His; label: 5'-32P
T23 chain: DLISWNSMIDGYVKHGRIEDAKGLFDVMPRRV

[25] = target: T24, CAR4/6 (I1L) (Arabidopsis thaliana, UniProt O22137 SEQ:124-155); assay: EMSA; did not bind A; settings: tags: N-terminal thioredoxin, C-terminal His; label: 5'-32P
T24 chain: T23 chain with I3L

B1: BD120 (petB) (ssRNA)
RNA: CUGGAUGGAAUUUCAGUGAAUUAGACUGAGAAGAAUCUUGAAGUUCUAGCUUUUAGCUCGAUACAAAAAAGUAAAGUAUGCAGGUCUAACAAUUUUAGCCUAUUCUCCUUUGGUAGUUCG
binding result [1]: binds | binding result [2]: binds | binding result [3]: binds | binding result [4]: binds | binding result [5]: binds | binding result [6]: binds | Kd [7]: 5.3 nM | Kd [8]: 5240 nM | binding result [9]: binds | binding result [10]: binds | binding result [11]: binds | binding result [12]: binds | binding result [13]: binds | binding result [14]: binds | Kd [15]: 473 nM | Kd [16]: 21.1 nM | binding result [17]: binds | binding result [18]: binds | binding result [19]: binds

B2: LA25 (ssRNA)
RNA: AUCGAAAAAAAAAAAAAAAAAAAAAAAAA
binding result [20]: binds | binding result [21]: binds | binding result [22]: binds | binding result [23]: binds | binding result [24]: binds | binding result [25]: no binding
